Consider 55 molecules from publication PMC12416549 (2024).

Where a chain is given by its changes, count along the chain named. Names and notes keep the numbering of the source.

T1: TNFR1 (Homo sapiens, UniProt P19438)
T1 chain: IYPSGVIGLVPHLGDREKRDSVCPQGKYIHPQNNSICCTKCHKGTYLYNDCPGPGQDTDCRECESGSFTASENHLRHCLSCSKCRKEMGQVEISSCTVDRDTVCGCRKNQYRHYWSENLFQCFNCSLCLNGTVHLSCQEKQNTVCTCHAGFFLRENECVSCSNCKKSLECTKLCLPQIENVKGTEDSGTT

B1: R89Y (designed binder)
chain: MTLQELLREEALRRAEAEAFRYALELLAEKFPEQKEYLLDLAEEIESQIRSLSGVDVEDVRKFLDKEWAWVKELLAEHPAELAEVEAAYAARLAELRAEVEAKVAA
B2: W68N (designed binder)
chain: B1 chain with W68N, Y89R
B3: A91S (designed binder)
chain: B1 chain with Y89R, A91S
B4: E18V (designed binder)
chain: B1 chain with E18V, Y89R
B5: L82H (designed binder)
chain: B1 chain with L82H, Y89R
B6: A102D (designed binder)
chain: B1 chain with Y89R, A102D
B7: T2V (designed binder)
chain: B1 chain with T2V, Y89R
B8: L52V (designed binder)
chain: B1 chain with L52V, Y89R
B9: A90E (designed binder)
chain: B1 chain with Y89R, A90E
B10: V100W (designed binder)
chain: B1 chain with Y89R, V100W
B11: Q34Y (designed binder)
chain: B1 chain with Q34Y, Y89R
B12: E10Q (designed binder)
chain: B1 chain with E10Q, Y89R
B13: E84D (designed binder)
chain: B1 chain with E84D, Y89R
B14: L93C (designed binder)
chain: B1 chain with Y89R, L93C
B15: E46G (designed binder)
chain: B1 chain with E46G, Y89R
B16: L38D (designed binder)
chain: B1 chain with L38D, Y89R
B17: A11Y (designed binder)
chain: B1 chain with A11Y, Y89R
B18: W68Y (designed binder)
chain: B1 chain with W68Y, Y89R
B19: F20P (designed binder)
chain: B1 chain with F20P, Y89R
B20: E101Q (designed binder)
chain: B1 chain with Y89R, E101Q
B21: L82C (designed binder)
chain: B1 chain with L82C, Y89R
B22: E95I (designed binder)
chain: B1 chain with Y89R, E95I
B23: L27P (designed binder)
chain: B1 chain with L27P, Y89R
B24: Y22R (designed binder)
chain: B1 chain with Y22R, Y89R
B25: E67S (designed binder)
chain: B1 chain with E67S, Y89R
B26: Q4Y (designed binder)
chain: B1 chain with Q4Y, Y89R
B27: A19V (designed binder)
chain: B1 chain with A19V, Y89R
B28: R97P (designed binder)
chain: B1 chain with Y89R, R97P
B29: D56F (designed binder)
chain: B1 chain with D56F, Y89R
B30: A91G (designed binder)
chain: B1 chain with Y89R, A91G
B31: L93E (designed binder)
chain: B1 chain with Y89R, L93E
B32: Q4E (designed binder)
chain: B1 chain with Q4E, Y89R
B33: Q4D (designed binder)
chain: B1 chain with Q4D, Y89R
B34: M1M (designed binder)
chain: B1 chain with Y89R
B35: R13A (designed binder)
chain: B1 chain with R13A, Y89R
B36: E46N (designed binder)
chain: B1 chain with E46N, Y89R
B37: L7V (designed binder)
chain: B1 chain with L7V, Y89R
B38: E25Q (designed binder)
chain: B1 chain with E25Q, Y89R
B39: L39G (designed binder)
chain: B1 chain with L39G, Y89R
B40: L26P (designed binder)
chain: B1 chain with L26P, Y89R
B41: S51Q (designed binder)
chain: B1 chain with S51Q, Y89R
B42: A23I (designed binder)
chain: B1 chain with A23I, Y89R
B43: K66F (designed binder)
chain: B1 chain with K66F, Y89R
B44: E44I (designed binder)
chain: B1 chain with E44I, Y89R
B45: E44Y (designed binder)
chain: B1 chain with E44Y, Y89R
B46: E86N (designed binder)
chain: B1 chain with E86N, Y89R
B47: M1Q (designed binder)
chain: B1 chain with M1Q, Y89R
B48: T2W (designed binder)
chain: B1 chain with T2W, Y89R
B49: I49L (designed binder)
chain: B1 chain with I49L, Y89R
B50: L3K (designed binder)
chain: B1 chain with L3K, Y89R
B51: R92V (designed binder)
chain: B1 chain with Y89R, R92V
B52: A69R (designed binder)
chain: B1 chain with A69R, Y89R
B53: A42E (designed binder)
chain: B1 chain with A42E, Y89R
B54: L64Q (designed binder)
chain: B1 chain with L64Q, Y89R
B55: L27I (designed binder)
chain: B1 chain with L27I, Y89R

This experiment addresses T1, TNFR1. Kind of experiment: yeast display SC50.
As to B1, the “apparent Kd (screen)” value was 0.539 nM.
For B2, the “apparent Kd (screen)” value was 12.5 nM.
Next, B3: 0.79 nM; B4: 0.79 nM; B5: 0.593 nM.
Next, B6: 0.539 nM.
As to B7, the “apparent Kd (screen)” value came to 0.593 nM.
As to B8, the “apparent Kd (screen)” value came to 0.49 nM.
Next, B9: 0.49 nM.
Consider B10, for which the “apparent Kd (screen)” value was 0.539 nM.
Then B11, with 0.539 nM; and B12, with 13.8 nM; and B13, with 0.49 nM.
As to B14, the “apparent Kd (screen)” value came out at 0.653 nM.
Consider B15, for which the “apparent Kd (screen)” value turned out to be 0.49 nM.
Next, B16: 11.4 nM; B17: 0.49 nM; B18: 0.49 nM.
Regarding B19, the “apparent Kd (screen)” value stood at 7.07 nM.
Turning to B20, the “apparent Kd (screen)” value was found to be 0.718 nM.
With B21, the “apparent Kd (screen)” value was determined as 0.593 nM.
As to B22, the “apparent Kd (screen)” value worked out at 0.446 nM.
Then B23, with 7.78 nM.
Next, B24: 0.593 nM.
Next, B25: 6.43 nM.
On to B26, for which the “apparent Kd (screen)” value was 0.49 nM.
Take B27: the “apparent Kd (screen)” value worked out at 0.446 nM.
Next, B28: 0.869 nM.
Next, B29: 2.73 nM; B30: 0.49 nM; B31: 0.869 nM.
Regarding B32, the “apparent Kd (screen)” value came to 0.79 nM.
For the molecule B33, the “apparent Kd (screen)” value was found to be 0.539 nM.
Then B34, with 0.49 nM; and B35, with 0.368 nM.
Turning to B36, the “apparent Kd (screen)” value was 0.593 nM.
Next, B37: 2.25 nM; B38: 0.539 nM.
Next, B39: 3 nM.
Next, B40: 13.8 nM; B41: 1.27 nM; B42: 0.653 nM.
On to B43, for which the “apparent Kd (screen)” value amounted to 0.653 nM.
In the case of B44, the “apparent Kd (screen)” value came out at 0.869 nM.
As to B45, the “apparent Kd (screen)” value is 7.78 nM.
Turning to B46, the “apparent Kd (screen)” value came out at 1.05 nM.
As for B47, the “apparent Kd (screen)” value turned out to be 0.593 nM.
Next, B48: 1.16 nM; B49: 0.539 nM.
As to B50, the “apparent Kd (screen)” value amounted to 2.48 nM.
As for B51, the “apparent Kd (screen)” value came out at 0.593 nM.
Next, B52: 0.539 nM; B53: 0.956 nM.
Next, B54: 0.79 nM; B55: 1.27 nM.
